From article PMC5289526, “Crystal Structure and Catalytic Mechanism of CouO, a Versatile C-Methyltransferase from Streptomyces rishiriensis” (PLoS ONE, 2017) come the findings set out here.

This series concerns the molecule itself. Briefly: SEC; last step of purification; HiLoad 16/60 Superdex 200 pg, 1 ml/min, Hepes pH 7, 100mM NaCl; calibrated with Bio-Rad gel filtration standard. A general note: SEC sorts molecules by how far they enter the pores of the column.

B1: CouO, C-methyltransferase from Streptomyces rishiriensis (enzyme)
chain: MKIEPITGSEAEAFHRMGSRAFERYNEFVDLLVGAGIADGQTVVDLCCGSGELEIILTSRFPSLNLVGVDLSEDMVRIARDYAAEQGKELEFRHGDAQSPAGMEDLLGKADLVVSRHAFHRLTRLPAGFDTMLRLVKPGGAILNVSFLHLSDFDEPGFRTWVRFLKERPWDAEMQVAWALAHYYAPRLQDYRDALAQAADETPVSEQRIWVDDQGYGVATVKCFARRAAA
notes: CouO, SAM-dependent C-methyltransferase of coumermycin A1 biosynthesis, Streptomyces rishiriensis; expected MW 26 kDa; also called CouO-WT; source: purified (last step size exclusion chromatography)
B1: the stoichiometry N (as a rule, a count of units in the complex or per binding partner) was found to be 2.
